Experimental data: patent US20050059589A1, “Methods and compositions for treating allergic reactions” (priority 1991, published 2005)

How the values were obtained:
[1] = system: cutaneous allergic reactions following the intradermal administration of antigen; assay: LPR skin test, intradermal challenge with dust mite antigen; assay type: in vivo, human; details: IL-1 receptor 1.65 mg/ml injected with dust mite antigen, versus allergen without receptor
Experimental: The LPR skin test is performed by interadermally injecting subjects on the forearm with test solution. The test solution contains the challenging antigen. Controls receive test solution without challenging antigen. The injection site is thereafter examined at intervals up to 96 hours. The diameters of the reactions are measured in two perpendicular directions and the characteristics are noted at different times.
The LPR gradually subsides over a 24 hour period. At the peak, the injection site is characterized by erythema, warmth, edema, pruritus and/or tenderness. The LPR is more extensive in area and produces greater discomfort then the early phase reaction.
Dust mite antigen is used (D. pteronyssinus; Allergy Laboratories of Ohio; 30,000 AU/ml). The soluble IL-1 receptor (Immunex Corp.; Seattle, Wash.) stock concentration is 10 mg/ml. Eight test solutions are prepared for intradermal injections (0.01 ml each) using TB syringes and disposable needles. Four intradermal test sites are used on each forearm.
Two test solutions are controls. […] Three concentrations of the antigen are evaluated (final concentrations: 1:500,000, 1:200,000, and 1:100,000).
The area of the wheal reaction is marked on the skin with a ball-point pen. […] The wheal reactions are then calculated by counting the squares within the pen-marked area.

[2] = system: conjunctival allergic response to ryegrass allergen; assay: conjunctival provocation test (CPT) with ryegrass allergen; assay type: in vivo, human
Experimental: Ten ryegrass-sensitive patients with hay fever conjunctivitis and ten nonallergic subjects without ocular disease are challenged by weekly topical administration of ryegrass allergen for 4 weeks with 10 μl of four different allergen doses (10,000, 32,000, 100,000, and 320,000 BU/ml of ryegrass allergen) (Pharmalgen, Pharmacia Diagnostics AB, Uppsala, Sweden). Albumin diluent (Pharmacia), is used to dilute the allergen. Five of the patients and five of the nonallergic subjects are given allergen premixed with IL-1 receptor. The other five patients and subjects are given allergen without IL-1receptor. Importantly, the allergic patients and control subjects have no clinical symptoms before ocular provocation. […]
The challenge solution is administered to the contralateral eye in both patients and control subjects. Clinical conjunctival evaluation with tear-fluid cytology is assessed in both eyes before administration of allergen or buffer 20 minutes, one hour, and six hours after challenge. In both the allergic patients and control subjects, the following ocular symptoms, both subjective and objective, are evaluated by a physician: hyperemia, edema, tearing, and itching. Each symptom is scored from 0 to 4+ and graded as follows: 0—absent; 1+—mild; 2+—moderate; 3+—severe; and 4+—very severe. […]

[3] = system: early and late phase response in nasal tissue of patients with seasonal allergic rhinitis; assay: nasal challenge with ragweed or mixed-grass pollen antigen; assay type: in vivo, human; details: prechallenge nasal lavages with IL-1 receptor versus buffer, 1000 PNU antigen, late and rechallenge reactions
Description: Sixteen patients with seasonal allergic rhinitis due to grass or ragweed pollens are selected.
Ragweed and mixed-grass pollen extracts (timothy, orchard, June and meadow grass in a ratio of 3:2:3:2) are purchased from Greer Laboratories (Lenoir, N.C.); lactated Ringer's solution and oxymetazoline hydrochloride (Afrin, Schering, Kenilworth, N.J.) are purchased from the hospital pharmacy.
At the time of the challenge, oxymetazoline hydrochloride is sprayed into the nose (two sprays per nostril) of all patients to prevent mucosal congestion, which would interfere with the collection of nasal secretions.
Eight of the sixteen patients receive four prechallenge nasal lavages with IL-1 receptor diluted in buffer; the remaining […] receive lavages with buffer only. Thereafter, challenges with 1000 PNU of antigen are undertaken.
The patients maintain a symptom score sheet during the challenge procedure. In addition to the number of sneezes, a six-point scale from 0 to 5 (with 0 equal to no symptoms and 5 equal to severe symptoms) is used to assess nasal secretion, blockage, and itching. The degree of blockage is, of course, underestimated on those score sheets because of the pretreatment with oxymetazoline hydrochloride. The presence or absence of symptoms correlates with the presence or absence of mediators during the late reaction.

[4] = system: late phase reaction in lung tissue of patients with allergic bronchial asthma; assay: allergen inhalation (dust mite extract) with bronchoalveolar lavage; assay type: in vivo, human; details: allergen premixed with IL-1 receptor versus allergen alone
Experimental: In this example, twenty patients with documented allergic bronchial asthma participate. Allergen inhalation is performed by inhaling dust mite extract (see Example 1, above) at 15 minute intervals using a Wiesbadnener Doppelspray (8 L/min air flow, nebulizer output approximately 0.2 ml/min). Ten patients received the allergen premixed with IL-1 receptor; the other ten patients received the allergen alone.
Eosinophil granule major basic protein levels are markedly elevated in the lavage fluid of these asthmatic patients. Peripheral blood eosinophil counts decrease during late phase responses to antigen challenge at the time eosinophil levels in the pulmonary tissues increases, presumably because of margination and emigration in the lungs.

[5] = system: alloreactivity in vivo; details: systemic administration; cited from earlier work
[6] = system: experimental autoimmune encephalomyelitis; details: interperitoneal administration; cited from earlier work

B1: IL-1 receptor: soluble IL-1 receptor (Immunex Corp.; Seattle, Wash.), stock concentration 10 mg/ml (protein, UniProt P14778 18-336, looked up)
extracellular domain: LEADKCKEREEKIILVSSANEIDVRPCPLNPNEHKGTITWYKDDSKTPVSTEQASRIHQHKEKLWFVPAKVEDSGHYYCVVRNSSYCLRIKISAKFVENEPNLCYNAQAIFKQKLPVAGDGGLVCPYMEFFKNENNELPKLQWYKDCKPLLLDNIHFSGVKDRLIVMNVAEKHRGNYTCHASYTYLGKQYPITRVIEFITLEENKPTRPVIVSPANETMEVDLGSQIQLICNVTGQLSDIAYWKWNGSVIDEDDPVLGEDYYSVENPANKRRSTLITVLNISEIESRFYKHPFTCFAKNTHGIDAAYIQLIYPVTNFQK
modifications: extracellular domain
notes: soluble IL-1 receptor (Immunex Corp; Seattle, Wash.), stock concentration 10 mg/ml
reduction of wheal at peak of LPR ([1]; LPR peak between eight and 13 hours): at least 50%
wheal area, early phase ([1]; twenty minutes post injection): reduced
immediate hypersensitivity ocular reaction (clinical response) ([2]; allergic subjects, allergen premixed with IL-1 receptor versus allergen without receptor, all allergen doses): significantly reduced response
increase in eosinophils in the tear fluid ([2]; highest allergen dose, 6 hours after provocation (late phase), allergic patients): not seen
nasal symptoms [3]: inhibits
release of histamine and other inflammatory mediators [3]: inhibits
activation of mast cells, infiltration of the tissues by eosinophils and other inflammatory cells, tissue damage and dysfunction (histologic data) [4]: markedly suppressed
eosinophil emigration in the lungs (bronchoalveolar lavage) [4]: suppression
survival of heart allografts [5]: prolonged
severity of the disease [6]: reduced
